Test results: patent US10485196, “Rice plants with altered seed phenotype and quality” (THE INSTITUTE OF GENETICS AND DEVELOPMENTAL BIOLOGY CHINESE …)
Residue numbers refer to the chain shown, from its start.

Tests used:
Details in all cases: label: biotin 3'
[1] = molecular target: T1, OsSPL16 (GW8) (Oryza sativa, UniProt Q6YZE8 Q6YZE8:1-455); assay: EMSA; competed by 10-50x cold GTAC probe; probe assignment from Table 9
T1 sequence: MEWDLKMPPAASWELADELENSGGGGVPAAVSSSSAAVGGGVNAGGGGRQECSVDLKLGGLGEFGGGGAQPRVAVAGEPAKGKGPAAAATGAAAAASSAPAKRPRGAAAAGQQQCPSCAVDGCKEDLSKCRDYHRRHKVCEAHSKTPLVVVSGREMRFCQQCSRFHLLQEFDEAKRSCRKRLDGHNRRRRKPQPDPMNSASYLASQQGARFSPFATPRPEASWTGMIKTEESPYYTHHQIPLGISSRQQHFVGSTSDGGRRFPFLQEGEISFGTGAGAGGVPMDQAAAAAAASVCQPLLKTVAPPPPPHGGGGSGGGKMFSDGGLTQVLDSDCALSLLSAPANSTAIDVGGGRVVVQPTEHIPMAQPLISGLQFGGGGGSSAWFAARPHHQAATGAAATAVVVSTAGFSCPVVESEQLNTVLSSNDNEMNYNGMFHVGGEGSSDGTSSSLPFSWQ

[2] = molecular target: T1, OsSPL16 (GW8); assay: EMSA; mutation of GTAC abolished affinity; probe assignment from Table 9
Procedure: FIG. 10 The DNA fragment (F8) containing two […] motifs (a) or two mutated ATAC motifs (b) was incubated with GST-OsSPL16 as indicated. Competition for OsSPL16 binding was performed with 10×, 20×, 30× and 50× cold probes containing the GTAC motif, respectively.

[3] = molecular target: T1, OsSPL16 (GW8); assay: EMSA; competed by 10-50x cold GTAC probe; probe assignment from Table 9; remark: listed apart in the source
From the text: FIG. 4. OsSPL16 negatively regulates GW7 expression. (a) Effect of OsSPL16/GW8 on transcript abundance of GW7 in young panicles. Transcription relative to the level of NIL-GW8^HJX74 plants set to be one. Data shown as mean±s.e.m (n=3). (b) Grain size and shape formed by transgenic NIL-gw8 Basmati plants. Scale bar: 2 mm. (c) ChIP assays. The diagram depicts the putative GW7 promoter and regions of it used for ChIP-PCR analysis of extracts from young panicle of transgenic NIL-gw8 Basmati plants carrying pActin::myc-OsSPL16 construct. Data shown as mean±s.e.m (n=3). (d) EMSA assays. The GTAC motifs-containing DNA fragment (F8 shown in c) of the GW7 promoter was incubated with GST-OsSPL16 as indicated. Competition for OsSPL16 binding was performed with 10×, 20×, 30× and 50× cold probes containing the GTAC motifs, respectively. (e) OsSPL16 represses transcription of the GW7 gene promoter. Relative luciferase activity was monitored in rice protoplasts co-transfected with the different effector and reporter constructs. Mock: co-transfected with reporter constructs and an empty effector construct; negative control: co-transfected with effector construct and an empty reporter construct set to be one. Data shown as mean±s.e.m (n=3). A Student's t-test was used to generate the P values. (f) An 11 bp deletion and 18 bp insertion found in close proximity to the GTAC motifs in the GW7TFA allele. […]

B1: GTAC motif probe (T) (dsDNA)
DNA 1: TAGTGTACGTACCTCTTAGTGTACGTACCTCTTAGTGTACGTACCTCT
DNA 2: AGAGGTACGTACACTAAGAGGTACGTACACTAAGAGGTACGTACACTA
Question: Does B1 bind [1]?
Answer: binds

B2: mutated GTAC motif probe (Z) (dsDNA)
DNA 1: B1 DNA 1 with A7G, A11G, A23G, A27G, A39G, A43G
DNA 2: B1 DNA 2 with T6C, T10C, T22C, T26C, T38C, T42C
Question: Does B2 bind [2]?
Answer: no binding

B3: GW7 promoter F8 fragment probe (HJX1) (dsDNA)
DNA 1: CCATTGACACACCATACCACATCTCATCTCACGCGTCCCAAAGAAAGTGATAGTGTACGTACC
DNA 2: GGTACGTACACTATCACTTTCTTTGGGACGCGTGAGATGAGATGTGGTATGGTGTGTCAATGG
Question: Does B3 bind [3]?
Answer: binds
